Data: patent publication US20240239855A1 (CYTOKI PHARMA, published 2024)
Like-named read-outs stand apart in the source and are kept apart here.

Legend:
Experiment in all cases: cell-based or functional assay
[1] = target: T1, human IL-22 receptor (human IL-22Ra and human IL-10Rb) on cells (human, UniProt Q8N6P7 16-574; Q08334 20-325)
T1 sequence (looked up) 1: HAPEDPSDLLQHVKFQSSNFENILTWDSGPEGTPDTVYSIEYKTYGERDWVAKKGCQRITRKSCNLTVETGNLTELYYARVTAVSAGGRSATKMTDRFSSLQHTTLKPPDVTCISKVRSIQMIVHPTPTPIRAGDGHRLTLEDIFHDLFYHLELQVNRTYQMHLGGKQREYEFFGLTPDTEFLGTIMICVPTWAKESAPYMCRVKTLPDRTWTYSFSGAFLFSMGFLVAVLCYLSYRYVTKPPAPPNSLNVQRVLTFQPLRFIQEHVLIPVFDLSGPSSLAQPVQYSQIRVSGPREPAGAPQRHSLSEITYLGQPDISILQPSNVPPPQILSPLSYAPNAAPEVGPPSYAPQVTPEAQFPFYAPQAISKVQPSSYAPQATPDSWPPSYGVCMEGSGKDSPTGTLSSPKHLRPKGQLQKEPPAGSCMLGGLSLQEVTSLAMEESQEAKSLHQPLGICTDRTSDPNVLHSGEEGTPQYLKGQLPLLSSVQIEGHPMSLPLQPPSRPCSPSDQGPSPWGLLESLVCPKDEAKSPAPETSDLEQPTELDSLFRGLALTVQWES
T1 sequence (looked up) 2: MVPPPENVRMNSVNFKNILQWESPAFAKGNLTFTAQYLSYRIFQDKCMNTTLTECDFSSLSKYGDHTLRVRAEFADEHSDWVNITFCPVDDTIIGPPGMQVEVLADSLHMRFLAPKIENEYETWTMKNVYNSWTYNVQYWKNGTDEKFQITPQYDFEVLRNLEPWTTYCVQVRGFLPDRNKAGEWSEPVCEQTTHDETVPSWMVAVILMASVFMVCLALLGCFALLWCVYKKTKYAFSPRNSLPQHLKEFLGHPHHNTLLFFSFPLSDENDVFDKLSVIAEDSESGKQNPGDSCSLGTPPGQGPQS

[2] = target: T1, human IL-22 receptor (human IL-22Ra and …); remark: listed apart in the source
[3] = target: T1, human IL-22 receptor (human IL-22Ra and …); remark: listed apart in the source
[4] = target: T1, human IL-22 receptor (human IL-22Ra and …); remark: listed apart in the source
[5] = target: T1, human IL-22 receptor (human IL-22Ra and …); remark: listed apart in the source
[6] = target: T1, human IL-22 receptor (human IL-22Ra and …); remark: listed apart in the source
[7] = target: T1, human IL-22 receptor (human IL-22Ra and …); remark: listed apart in the source
[8] = target: T1, human IL-22 receptor (human IL-22Ra and …); remark: listed apart in the source

B1: Comparator 11 (ligand)
chain: GAPISSCCRLDKSNFQQPYITNRTFMLAKEASLADQNTDVRLIGEKLFHGVSMSERCYLMKQVLQFTLEEVLFPQSDRFQPYMQEVVPFLARLSNRLSTCHIEGDDLHIQRNVQKLKDTVKKLGESGEIKAIGELDLLFMSLRNACI
modifications: C18 diacid attached through linker γGlu-OEG-OEG-C2DA-Ac to Cys 6C
[1]
  EC50, BHK cell reporter gene assay (STAT3-induced luciferase): 1.24 nM

B2: Comparator 18 (ligand)
chain: GPGCPISSHCRLDKSNFQQPYITNRTFMLAKEASLADQNTDVRLIGEKLFHGVSMSERCYLMKQVLQFTLEEVLFPQSDRFQPYMQEVVPFLARLSNRLSTCHIEGDDLHIQRNVQKLKDTVKKLGESGEIKAIGELDLLFMSLRNACI
[1]
  EC50, BHK cell reporter gene assay (STAT3-induced luciferase): 0.19 nM

B3: Comparator 13 (ligand)
chain: GPGCPISSHCRLDKSNFQQPYITNRTFMLAKEASLADQNTDVRLIGEKLFHGVSMSERCYLMKQVLQFTLEEVLFPQSDRFQPYMQEVVPFLARLSNRLSTCHIEGDDLHIQRNVQKLKDTVKKLGESGEIKAIGELDLLFMSLRNACI
modifications: C16 diacid attached through linker γGlu-OEG-OEG-C2DA-Ac to Cys 1C
[1]
  EC50, BHK cell reporter gene assay (STAT3-induced luciferase): 0.37 nM

B4: Comparator 9 (ligand)
chain: GPGCPISSHCRLDKSNFQQPYITNRTFMLAKEASLADQNTDVRLIGEKLFHGVSMSERCYLMKQVLQFTLEEVLFPQSDRFQPYMQEVVPFLARLSNRLSTCHIEGDDLHIQRNVQKLKDTVKKLGESGEIKAIGELDLLFMSLRNACI
modifications: C18 diacid attached through linker γGlu-OEG-OEG-C2DA-Ac to Cys 1C
[1]
  EC50, BHK cell reporter gene assay (STAT3-induced luciferase): 0.61 nM
[2]
  EC50, HepG2 cell assay for pSTAT3 (AlphaScreen SureFire STAT3 p-Tyr705): 14.9 nM

B5: Comparator 4 (ligand)
chain: GPGCPISSHCRLDKSNFQQPYITNRTFMLAKEASLADNNTDVRLIGEKLFHGVSMSERCYLMKQVLNFTLEEVLFPQSDRFQPYMQEVVPFLARLSNRLSTCHIEGDDLHIQRNVQKLKDTVKKLGESGEIKAIGELDLLFMSLRNACI
modifications: C18 diacid attached through linker γGlu-OEG-OEG-C2DA-Ac to Cys 1C
[3]
  fold reduced potency compared to hIL-22, HepG2 cell assay for pSTAT3: 2.5 fold
  fold reduction in potency compared to hIL-22, BHK cell reporter gene assay: 7 fold
[4]
  In vitro EC50, BHK cell reporter gene assay (STAT3-induced luciferase): 0.48 nM
[1]
  EC50, BHK cell reporter gene assay (STAT3-induced luciferase): 0.48 nM
[2]
  EC50, HepG2 cell assay for pSTAT3 (AlphaScreen SureFire STAT3 p-Tyr705): 10.1 nM

B6: Derivative 1 (ligand)
chain: GPGCPISSHCRLDKSNFQQPYITNRTFMLAKEASLADNNTDVRLIGEKLFHGVSMSERCYLMKQVLNFTLEEVLFPQSDRFQPYMQEVVPFLARLSNRLSTCHIEGDDLHIQRNVQKLKDTVKKLGESGEIKAIGELDLLFMSLRNACI
modifications: C16 monoacid attached through linker γGlu-OEG-OEG-εLys-αAc to Cys 1C (position 1 of hIL-22; position 4 in the sequence listing entry)
[5]
  EC50, BHK cell reporter gene assay (STAT3-induced luciferase): 0.06 nM
[4]
  In vitro EC50, BHK cell reporter gene assay (STAT3-induced luciferase): 0.06 nM

B7: Comparator 17 (ligand)
chain: GPGCPISSHCRLDKSNFQQPYITNRTFMLAKEASLADNNTDVRLIGEKLFHGVSMSERCYLMKQVLNFTLEEVLFPQSDRFQPYMQEVVPFLARLSNRLSTCHIEGDDLHIQRNVQKLKDTVKKLGESGEIKAIGELDLLFMSLRNACI
[1]
  EC50, BHK cell reporter gene assay (STAT3-induced luciferase): 0.09 nM
[2]
  EC50, HepG2 cell assay for pSTAT3 (AlphaScreen SureFire STAT3 p-Tyr705): 12.1 nM

B8: Comparator 6 (ligand)
chain: GPGCPISSHCRLDKSNFQQPYITNRTFMLAKEASLADNNTDVRLIGEKLFHGVSMSERCYLMKQVLNFTLEEVLFPQSDRFQPYMQEVVPFLARLSNRLSTCHIEGDDLHIQRNVQKLKDTVKKLGESGEIKAIGELDLLFMSLRNACI
modifications: C16 diacid attached through linker γGlu-OEG-OEG-C2DA-Ac to Cys 1C
[3]
  fold reduction in potency compared to hIL-22, BHK cell reporter gene assay: 4 fold
[4]
  In vitro EC50, BHK cell reporter gene assay (STAT3-induced luciferase): 0.3 nM
[1]
  EC50, BHK cell reporter gene assay (STAT3-induced luciferase): 0.3 nM

B9: Comparator 12 (ligand)
chain: APISSHCRLDKSNFQQPYITNRTFMLAKEASLCDQNTDVRLIGEKLFHGVSMSERCYLMKQVLQFTLEEVLFPQSDRFQPYMQEVVPFLARLSNRLSTCHIEGDDLHIQRNVQKLKDTVKKLGESGEIKAIGELDLLFMSLRNACI
modifications: C18 diacid attached through linker γGlu-OEG-OEG-C2DA-Ac to Cys 33C
[1]
  EC50, BHK cell reporter gene assay (STAT3-induced luciferase): 0.28 nM

B10: Comparator 14 (ligand)
chain: GPISSHCRLDKSNFQQPYITNRTFMLAKEASLADNNTDVRLIGEKLFHGVSMSERCYLMKQVLNFTLEEVLFPQSDRFQPYMQEVVPFLARLSNRLSTCHIEGDDLHIQRNVQKLKDTVKKLGESGEIKAIGELDLLFMSLRNACI
[4]
  In vitro EC50, BHK cell reporter gene assay (STAT3-induced luciferase): 0.06 nM
[1]
  EC50, BHK cell reporter gene assay (STAT3-induced luciferase): 0.06 nM
[2]
  EC50, HepG2 cell assay for pSTAT3 (AlphaScreen SureFire STAT3 p-Tyr705): 4.73 nM

B11: Comparator 3 (ligand)
chain: APISSHCRLDKSNFQQPYITNRTFMLAKEASLADNNTDVRLIGEKLFHGVSMSERCYLMKQVLNFTLEEVLFPQSDRFQPYMQEVVPFLARLSNRLSTCHIEGDDCHIQRNVQKLKDTVKKLGESGEIKAIGELDLLFMSLRNACI
modifications: C18 diacid attached through linker γGlu-OEG-OEG-C2DA-Ac to Cys 106C
[6]
  EC50, BHK cell reporter gene assay (STAT3-induced luciferase), second laboratory: 0.085 nM
  Fold change EC50 compared to hIL-22, BHK cell reporter gene assay, second laboratory: 3 fold

B12: Comparator 19 (ligand)
chain: APISSHCRLDKSNFQQPYITNRTFMLAKEASLADNNTDVRLIGEKLFHGVSMSERCYLMKQVLNFTLEEVLFPQSDRFQPYMQEVVPFLARLSNCLSTCHIEGDDLHIQRNVQKLKDTVKKLGESGEIKAIGELDLLFMSLRNACI
modifications: C18 diacid attached through linker γGlu-OEG-OEG-C2DA-Ac to Cys 95C
[6]
  EC50, BHK cell reporter gene assay (STAT3-induced luciferase), second laboratory: 0.31 nM
  Fold change EC50 compared to hIL-22, BHK cell reporter gene assay, second laboratory: 11 fold

B13: Comparator 1 (ligand)
chain: APISSHCRLDKSNFQQPYITNRTFMLAKEASLADQNTDVRLIGEKLFHGVSMSERCYLMKQVLQFTLEEVLFPQSDRFQPYMQEVVPFLARLSNRLSTCHIEGDDCHIQRNVQKLKDTVKKLGESGEIKAIGELDLLFMSLRNACI
modifications: C18 diacid attached through linker γGlu-OEG-OEG-C2DA-Ac to Cys 106C
[7]
  EC50, BHK cell reporter gene assay (STAT3-induced luciferase): 0.23 nM
  Fold change EC50 compared to hIL-22, BHK cell reporter gene assay: 3 fold

B14: Derivative 2 (ligand)
chain: CPISSHCRLDKSNFQQPYITNRTFMLAKEASLADNNTDVRLIGEKLFHGVSMSERCYLMKQVLNFTLEEVLFPQSDRFQPYMQEVVPFLARLSNRLSTCHIEGDDLHIQRNVQKLKDTVKKLGESGEIKAIGELDLLFMSLRNACI
modifications: C16 monoacid attached through linker γGlu-OEG-OEG-εLys-αAc to Cys 1C
[8]
  EC50, BHK cell reporter gene assay (STAT3-induced luciferase), second laboratory: 0.03 nM

B15: Comparator 2 (ligand)
chain: APISSHCRLDKSNFQQPYITNRTFMLAKEASLADQNTDVRLIGEKLFHGVSMSERCYLMKQVLQFTLEEVLFPQSDRFQPYMQEVVPFLARLSNCLSTCHIEGDDLHIQRNVQKLKDTVKKLGESGEIKAIGELDLLFMSLRNACI
modifications: C18 diacid attached through linker γGlu-OEG-OEG-C2DA-Ac to Cys 95C
[7]
  EC50, BHK cell reporter gene assay (STAT3-induced luciferase): 0.36 nM
  Fold change EC50 compared to hIL-22, BHK cell reporter gene assay: 5 fold

B16: Comparator 7 (ligand)
chain: GPGSGSGSCGSGSGSAPISSHCRLDKSNFQQPYITNRTFMLAKEASLADNNTDVRLIGEKLFHGVSMSERCYLMKQVLNFTLEEVLFPQSDRFQPYMQEVVPFLARLSNRLSTCHIEGDDLHIQRNVQKLKDTVKKLGESGEIKAIGELDLLFMSLRNACI
modifications: C16 diacid attached through linker γGlu-OEG-OEG-C2DA-Ac to Cys -7C (in the N-terminal peptide)
[1]
  EC50, BHK cell reporter gene assay (STAT3-induced luciferase): 0.18 nM

B17: Comparator 5 (ligand)
chain: GPGSGSGSCGSGSGSAPISSHCRLDKSNFQQPYITNRTFMLAKEASLADNNTDVRLIGEKLFHGVSMSERCYLMKQVLNFTLEEVLFPQSDRFQPYMQEVVPFLARLSNRLSTCHIEGDDLHIQRNVQKLKDTVKKLGESGEIKAIGELDLLFMSLRNACI
modifications: C18 diacid attached through linker γGlu-OEG-OEG-C2DA-Ac to Cys -7C (in the N-terminal peptide)
[2]
  EC50, HepG2 cell assay for pSTAT3 (AlphaScreen SureFire STAT3 p-Tyr705): 6.98 nM
